# Assay results reported in article PMC11079029, “Intramolecular autoinhibition regulates the selectivity of PRPF40A tandem WW domains for proline-rich motifs” (Nature Communications, 2024).
# What was measured:
# [1] = molecular target: PRPF40A N-ext-WW12 (N-terminally extended WW tandem, residues 56-236) (human) (UniProt O75400); experiment: ITC; PRPF40A construct (WW12, N-ext-WW12 or its mutant) in the cell, GB1-SF1 or GB1-SF3A1 construct in the syringe (as shown in Supplementary Figures 16 and 21); 25 °C, 20 mM sodium phosphate pH 6.5, 100 mM NaCl; one-site binding model; at least duplicates; affinities apparent
# [2] = molecular target: PRPF40A N-ext-WW12 mutant (residues 56-236, PPVP/PALPP motifs changed to alanines) (human) (UniProt O75400); experiment: as above
# [3] = molecular target: GB1-SF1(596-611) 16-mer peptide; experiment: ITC; MicroCal PEAQ-ITC, 25 °C, 20 mM sodium phosphate pH 6.5, 100 mM NaCl; PRPF40A constructs and GB1-tagged SF1 16-mer peptides; who was in the syringe is not stated for these panels (Fig. 2B, Fig. 5C); one-site model
# [4] = molecular target: GB1-SF1 16-mer peptide 470-485; experiment: ITC; GB1-peptide or GB1-SF1 construct in the cell, PRPF40A WW12 in the syringe (as shown in Supplementary Figures 7 and 16A); 25 °C, 20 mM sodium phosphate pH 6.5, 100 mM NaCl; one-site binding model; at least duplicates; affinities apparent
# [5] = molecular target: GB1-SF1 16-mer peptide 425-440; experiment: as above
# [6] = molecular target: GB1-SF1 16-mer peptide 623-638; experiment: as above
# [7] = molecular target: GB1-SF1 16-mer peptide 478-493; experiment: as above
# [8] = molecular target: GB1-SF1 16-mer peptide 596-611; experiment: as above
# [9] = molecular target: GB1-SF1 16-mer peptide 575-590 (SF1 PRPF40A WW binding site, GB1-tagged); experiment: as above
Substance,Kd [1] [µM],stoichiometry N [1] [sites],Kd [2] [µM],stoichiometry N [2] [sites],Kd [3] [µM],Kd [4] [µM],stoichiometry N [4] [sites],Kd [5] [µM],stoichiometry N [5] [sites],Kd [6] [µM],stoichiometry N [6] [sites],Kd [7] [µM],stoichiometry N [7] [sites],Kd [8] [µM],stoichiometry N [8] [sites],Kd [9] [µM],stoichiometry N [9] [sites]
"GB1-SF1 16-mer peptide 575-590 (SF1 PRPF40A WW binding site, GB1-tagged)",8.71,0.88,2.21,0.84,–,–,–,–,–,–,–,–,–,–,–,–,–
"PRPF40A WW12 (tandem WW domains, residues 141-236) (from UniProt O75400 141-236) (domain or fragment)",–,–,–,–,65.9,13.9,0.9,20.2,0.87,23.3,0.95,9.59,0.8,65.9,1.1,1.4,1
